Source: the nanobody polyreactivity screen of Harvey et al. (2022)

Experiment: yeast display, Sf9 membrane polyspecificity reagent, FACS + sequencing; frameworks hold sequencing errors
Method in brief: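 Nanobodies from a synthetic yeast display library (Saccharomyces cerevisiae BJ5465), induced 36–48 hours with galactose, were stained 1 hour at 4 °C with 10% biotinylated, detergent-solubilized Sf9 membrane reagent, enriched on streptavidin microbeads, then FACS-sorted. Anti-HA (expression) and streptavidin (reagent binding) fluorescence set low and high (top ~1%) gates. Polyreactivity labels come from the gate of origin. Genes were colony-PCR amplified, MiSeq 2 × 250 sequenced and filtered by CDR length.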

Row | Sequence | polyreactivity (PSR sort gate)
1 | QVQLVESGGGLVQAGGSLRLSCAASGRILYPYAMGGYRQAPGKERELVAAITFIGGSTYYADSVKGRFTISRDNAKNTVYLQMNSLKPEDTAVYYCNAKPHRPSLLRWRIGNYWGQGTQVTVSS | high polyreactivity
2 | QVQLVESGGGLVQAGGSLRLSCAASGFIFTRYVMGWYRQAAGKERELVAAISRIGASTYYADSVKGRFTISRDNAKNNFYLQMNCLNPEATAVYYCKVVSGGYCEYDYWGHGTQVTVSS | high polyreactivity
3 | QVQLVESGGGLVQAGGSLRLSCAASGRTFSRNAMGWYRQAPGKERELVAAITSRGGTTYYADSVKGRFTISRDNAKNTVYLQMNSLKPEDTAVYYCNAAPRARSKVSYDYWGQGTQVTVSS | high polyreactivity
4 | QVQLVESGGGLVQAGGSLRLSCAASGFTFVYYAMGWYRQAPGKERELVAAISGRGGSTYYADSVKGRFTISRDNAKNTVYLQMNSLKPEDTAVYYCATTYSWYYVPDKTHIYYYWGQGTQVTVSS | low polyreactivity
5 | QVQLVESGGGLVQAGGSLRLSCAASGITFVFYAMGRYRPAPGKERELVAAISSSGGSTYYADSVKGRFTISRDNAKNTVYLQMNSLKAEDTAVYYCNAKVFSYQGAVRYDYWGQGTQVTVSS | high polyreactivity
6 | QVQLVESGGGLVQAGGSLRLSCAASGSILGSNAMGWYRQAPGKERELVAAITSSGGSTYYADSVKGRFTISRDNAKNTVYLQMNSLKPEDTAVYYCAARTNYDSTRGEYDYWGQGTQVTVSS | low polyreactivity
7 | QVQLVESGGGLVQAGGSLRLSCAASGITFAYNAMGSYRQAPGKERELVARITSGGRTYYADSVKGRFTISRDNAKNTVYLQMNSLKPEDTAVYYCNAKEGSRYRKYDYWGQGTQVTVSS | low polyreactivity
8 | QVQLVESGGGLVQAGGILRLSCAASGSILTDNAMGWYRQAPGKERELVAAITSSGNTNYADSVKGRFTISRDNAKNTVFLQMNSLKPEDTAVYYCARDLREWGQGTQVTVSS | low polyreactivity
9 | QVQLVESGGGLVQAGGSLRLICAASGSTFVVNAMGWYRQAPGKERELVAAIRNSGSTTYADSVKGRFTISRDNAKNTVYLQMNSLKPEDTAVYYCATDFSATVTAVQINPYDYWGQGTQVTVSS | low polyreactivity
10 | QVQLVESGGGLVQAGGSLRLSCVASGLTFYYYAMGWYRQAPGKERELVAAISSGGSTYYADSVKGRFTISRDNAKNTVYLQMNSLKPEDTAVYYCNTYRYRVWGLMYWGQGTQVTLSS | high polyreactivity
11 | QVQLVESGGGLVQAGGSLRLSCAASGSTSYGYAMGWYRQAPGKERELVAAISRTDRTYYADSVKGRFTISRDNAKNTVYLQMNSLKPEDTAVYYCTAVLVGRAEYYYWGQGTQVTVSS | high polyreactivity
12 | QVQLVESGGGLVQAGGSLRLSCAASGSTFYSNAMGWYRQAPGKERELVASISWSSGSTYYADSVKGRFTISRDNAKNTVYLQMNSLKPDDTAVYYCATDAGGPYRFGYWGQGTQVTVSS | low polyreactivity
13 | QVQLVESGGGLVQAGGSLRLSCAASGSTLGWYVMGWYRQAPGKERELVAAISKSGGRTYYADSVKGRFTISRDNAKNTVYLQMNSLKPEDTAVYYCAAYPPSDFYYEHDYWGQGTQVSVSS | high polyreactivity
14 | QVQLVESGGGLVQEGGSLRLSCASSGSTFRYNVMGWYRQAPGKERELVAAITRRGSRTYYADSVKGRFTISRDNAKNTVYLHMNSLKPADTAVYDCNKNSLSVPANDDYWGQGTQVTVSS | high polyreactivity
15 | QVQRVESGGGLVQAGGSLRLSCAASGRTFSKNAMGRTRQAPGQETELVAAISGSGGSTYYADSVKGRFTISRDNAKNTVYLQMNSLKPEDTAVYYCADRYTVRRSGYWGQGTQVTVSS | high polyreactivity
16 | QVQLVESGGGLVQAGGSLRLSCAASGIIFRVYAMGWYRQAPGKERELVAAITKGGGRTYYADSVKGRFTISRDIAKNTVYLQMNCLIPEDTAVYYCAARSSSRFEYWGQGTEVTVSS | high polyreactivity
17 | QVQLVESGVGLVQAGGSLRLSCAASGFIFCGYAMVWYRHAPGKERELVAAISWSGDNTYYADSVKGRFTISRDNAKNTVYFQMNSLKPEDTAVYYCAADSYGQEYDYWGQGTQVSVSS | low polyreactivity
18 | HDQHVESGGGLVQAGGSLRLSCAASGRIYGSTMGWYRQAPGKERELVAAITRNGGSTYYADSVKGRFTISRDNSKNTVYLQMNSVKPEDTEVYYCAARNAFGTYYYWGQGTQVNVSS | high polyreactivity
19 | QVQLQESGGGLVQAGGDLRLSCAASGNIFRDYIMGWYRQAPGKEREFVAGIDRGANTNYADSVKGRFTISRDNAKNTVYLQMNSLKPEDTAVYYCAVHTAIVPDFIYWGQGSQVTVSS | low polyreactivity
20 | QVQLVESGGGLVQAGGSLRLSCAASGITFYPNGMGWYRQAPGKEREFVAAISSSGGSTYYADSVKGRFTISRDNAKNSVYLQMNSLKPEDTAVYYCAAQYYAMSYYGYGYWGQGTQVTVSS | low polyreactivity
21 | QDQLVESGGGLVQAGCSLRLSCAASGLIFNYKVMGWYRHAPGKERELVAAISRGGSTYYADSVKGRFTFSRDNAKNTVYLQMNSLKPEDTAVYYCAARYRSRYDYWGQGTQVTVSS | high polyreactivity
22 | QVQLVESGGGLVQAGGSLRLSCAASGFTFALYAMGWYRQAPGKEREVVASIDNGVSTNYADSVKGRFTISRDNAKNTVYLQMNSLKPEDTAVYYCAKGPGYGFYKLLSYDSWGQGTQVTVSS | low polyreactivity

Row | Sequence | polyreactivity (PSR sort gate)
23 | QVQLGESGGGLVQAGGSLRLSCAASGRILSVYVMGWYRQAPGKERELVAAIRRGGYTYYADSVKGRFTISRDNAKNTVYLQMNSLKQEDTAVYYCNARQRPPPYYYWGQGTQLTVSS | high polyreactivity
24 | QVQLVESGGGLVQAGGSLRLSCAASGIIYYGYVMGWYRQAPGKERELVATITSSGGSKYYADSVKGRFTISRDNAKNTVYLQMNSLKPEDTAVYYCAADYYYGAWVRHDYWGQCTQVTVSS | low polyreactivity
25 | QVQIVESGGGLVQAGGSLRLSCAASGITFVPNAIGLYRQAPGKERELFDAITNGDSTNYADSVKGRFTISRDNAKNTVYLQMNSLKPEDTAVYYCAADSCAQRPNQGRVSLHYYWGQVTQVTVSS | low polyreactivity
26 | QVQLVESGGGLVQAGGSLRLSCAASGRIFYANSMGWYRQAPGKERELVASISARGGYTYYADSVKGRFTISRDTAKNTVYLQMNSLKPEDTAVYYCAAEYLAVSGYWYAYWGQGTQVTVSS | high polyreactivity
27 | QVQLVESGGGLVQAGGSLRLSCAASGRTFRYAMGWYRQAPGKERELVAAITGSGGSTYYADSVKGRFTISRDNAKNTVYLQMNSLKPEDTAVYYCAAARYDYWGQGTQVTVSS | high polyreactivity
28 | QVQLVESGGGLVQAGGSLRLSCASSGSTFYSYVMGWYRQAPGKERELVAVISNDGSTNYADSVKGRFTISRDNAKNSVYLQMNSLKPEDTAVYYCDALKFVRAYRYYYWGQGTQVTVSS | low polyreactivity
29 | QVQLVESGGGLVQAGGSLRLSCAASGSTFKGNAMGWYRQAPGKERELVAAITFSGGSTYYADSVKGRFTISRDNAKNTVYLQMNSLKPEDTAVYYCAKGEWVYWRPWYEYWGQGTQVTVSS | low polyreactivity
30 | QVQLEESGGGLVQAGGRLRLSCAASGPIFGYYAMGWYRQAPGKERELVAGIDWSGGNTYYADSVKGRFTISRDNAKYTVYLQMNSLKPEDTAVYYCNTEGGRDTAWYDYWGQGTQVTVSS | low polyreactivity
31 | QVQLVESGGGIDQAGGSLRLSCAATGLTFWLNPMGWYRQAPWKERELVAAIRYSGGGTYADSVKGRFTISRDNAKNTVSLQMNSLKQEVTAVYYCAALYNLGYPQFDYWGQGNQVTVSS | low polyreactivity
32 | QVQLVESGGGLVQAGGSLRLSCAASGRTSARYGMGWYRQAPGKERELVASIRRSGDSTYYADSVKGRFTISRDNAKNTVYLQLNSLKPEDTAVYYCAAGGKQGKRDYWGQGTQVTVSS | low polyreactivity
33 | QVQLVESGGGLVQAGGSLRLSCAASGSLFEWYAMGWSRQAPGKEREFVADITYNGGSTYYADSVKGRFTISRDNAKNTVYLHMNSLKPEDTAVYYCAADYFVQVPDYYYPSEYGYWGQGTQVTVSS | low polyreactivity
34 | QVQLVESGGGLVQAGGSLRLSCAASGRIFRSYAMGWYRQAPGKERELVADISISGGRTYYADSVKGRFTISRDNAKNTVYLQMNSLKPEDTAVYYCAARTYDRNRQLRRQWYDYWGQGTQVTVSS | high polyreactivity
35 | QVQLVESGGGLVQAGGSLRLSCAASGSIFPGYARGWYRQAPGKERELVATITWSGGSTYYADSVKGRFTISRDNAKNTVYLQMNILIPEDTAVYYCNADSNWYYQWNYYGLYDYWGQGNQVTVSS | low polyreactivity
36 | QVHLVESGGGLVQAGGSLRLRSAASGRTFGWNVMGWYRQAPGKERELVAAISGSGGSTYYADSVKGRFTISRDNAKNTVYLQMNSLKPEDTAVYYCDALYGPGREYDYWGQGTQVTVSS | low polyreactivity
37 | QLQLVESGGGLVQAGGSLRLSCAASGFTFSAYAMGSYRQAPGKERELVAAISWSGGSTYYADSVKGRFTISRDNAKNTVYLQRNSLKPEDTAVYYCAADFHSYYRFDYWGQGTQVTVSS | high polyreactivity
38 | QVQLVESRGGLVQAGGSLRLSCAASGFTFYLNALGWYRPAPGKERELVAAISYSDGSTYYADSVKGRFTISRDNAKNTVYLQMNSLKPEDTAVYYCAADTTDPGGAYQLMDYCGQGTQVTVSS | high polyreactivity
39 | QVQLVESGGGLVQAGGSLRLSCAASGSTFRRYAMGWYRQAPGKERELVAGISYSGGRTYYADSVKGRFTISRDNAKNTVYLQMNSLKPEDTAVYYCAAKSFPSVRHHENYYWGQVTQVTVSS | high polyreactivity
40 | QVQLVESGGGLVQSGGSLRLSCAASGSTSINYAMGWYRQAPGKERELVATISRGGSTTYADSVKGRFTISRDNAKNTVYLQMNSLKPEATAVYYCAKDRYPADEDYWGQGTQVTVSS | low polyreactivity
41 | QVQLVESGGGLVQAGGSLRLSCAASGFIFVYYAMGWYRQAPGKERELVAAISGHGGRTYYADSVKGRFTISRDNAKNTVYLQMNSLKPEDTAVYYCAALLYWRGYGYNYWGQGTQVTVSS | high polyreactivity
42 | QVQLVESGGGLVQAGGSLRLSCASSGRTLRRYAMGWYRQAPGKERELVAAISRSGSSTYADSVKGRFTISRDNAKNTVYLQMNSLKPEDTAVYYCNAYQPRYVYWGQGTQVTVSS | high polyreactivity
43 | QVQLVEAGGGLVQAGGSLRLSCAASGRTFYQNAMGWNIQAPGKERELVAAISRSGGSTYYADSVKGRFTISRDNAKITVYLQMTSLKPEDTAVYYCAADPRSYGGGYDYWGQGTQVTVSS | high polyreactivity
